Drawing on patent US20210145976A1, this text covers HSA for 39 molecules.

The target of this test is human serum albumin (human) (UniProt P02768). In words: screening ELISA.
Sequence of human serum albumin (human) (P02768 25-609 limits assumed): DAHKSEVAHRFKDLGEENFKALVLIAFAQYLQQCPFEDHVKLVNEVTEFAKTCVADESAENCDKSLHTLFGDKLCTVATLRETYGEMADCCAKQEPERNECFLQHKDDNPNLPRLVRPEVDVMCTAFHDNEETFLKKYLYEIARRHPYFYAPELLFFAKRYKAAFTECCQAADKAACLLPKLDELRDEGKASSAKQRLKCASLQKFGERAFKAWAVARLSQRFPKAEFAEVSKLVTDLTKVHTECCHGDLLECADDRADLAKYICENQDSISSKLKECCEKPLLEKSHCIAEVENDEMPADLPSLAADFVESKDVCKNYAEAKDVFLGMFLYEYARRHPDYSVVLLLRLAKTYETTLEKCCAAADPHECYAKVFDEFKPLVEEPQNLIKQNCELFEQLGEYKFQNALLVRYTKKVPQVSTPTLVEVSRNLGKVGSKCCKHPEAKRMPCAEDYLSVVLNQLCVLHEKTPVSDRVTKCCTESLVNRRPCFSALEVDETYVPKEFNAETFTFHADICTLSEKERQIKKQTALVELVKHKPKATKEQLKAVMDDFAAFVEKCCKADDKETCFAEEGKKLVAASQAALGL

B1: SEQ ID NO 155 (designed binder)
chain: MLPAPKNLVVSRVTEDSARLSWTAPDAAFDSFPITYRERSQYGEAIVLTVPGSERSYDLTGLKPGTEYVVPIEGVKGGRGSKPLSAIFTT
The molecule B1 returned an HSA of 26000.

B2: SEQ ID NO 153 (designed binder)
chain: MLPAPKNLVVSRVTEDSARLSWTAPDAALDSFRIAYTEYFVGGEAIVLTVPGSERSYDLTGLKPGTEYGVGIYGVKGGAGSSPLSAIFTT
The molecule B2 gave an HSA of 13100.

B3: SEQ ID NO 137 (designed binder)
chain: MLPAPKNLVVSRVTEDSARLSWTAPDAAFDSFEIEYDEPSVAGEAIVLTVPGSERSYDLTGLKPGTEYRVFIWGVKGGNQSWPLSAIFTT
Turning to B3, the HSA stood at 2050.

B4: SEQ ID NO 139 (designed binder)
chain: MLPAPKNLVVSRVTEDSARLSWTAPDAAFDSFDISYWESGKYGEAIVLTVPGSESSYDLTGLKPGTEYLVDIFGVKGGYPSEPLSAIFTT
B4 gave an HSA of 2100.

B5: SEQ ID NO 147 (designed binder)
chain: MLPAPKNLVVSRVTEDSARLSWTAPDAAFDSFFIGYLEPQPPGEAIVLTVPGSERSYDLTGLKPGTEYSVLIHGVKGGRNSDPLSAISTT
For the molecule B5, the HSA turned out to be 71200.

B6: SEQ ID NO 165 (designed binder)
chain: MLPARKNLVVSRVTEDSARLSWTAPDAAFDSFFIPYAEPSPTGEAIVLTVPGSERSYDLTGLKPGTEYSVLIHGVKGGHLSDPLSAISTT
The molecule B6 registered an HSA of 65200.

B7: SEQ ID NO 159 (designed binder)
chain: MLPAPKNLVVSRVTEDSARLSWTAPDAAFDSFLIPYAETSPSGEAIVLTVPGSERSYDLTGLKPGTEYSVLIHGVKGGRNSDPLSAIFTT
With B7, the HSA was determined as 1950.

B8: SEQ ID NO 151 (designed binder)
chain: MLPAPKNLVVSRVTEDSARLSWTAPDAAFDSFFIPYAEPSPTGEAIVLTVPGSERSYDLTGLKPGTEYGVVILGVKGGYGSDPLSAIFTT
B8 gave an HSA of 55000.

B9: SEQ ID NO 168 (designed binder)
chain: MLPAPKNLVVSRVTEDSARLSWTTPDAAFDSFFIGYLEPYPPGEAIVLTVPGSERSYDLTGLKPGTEYVVSIQGVKGGKPSDPLSAIFTT
In turn, B9 came in with an HSA of 1950.

B10: SEQ ID NO 150 (designed binder)
chain: MLPAPKNLVVSRVTEDSARLSWTAPDAAFDSFPIAYAEPSPTGEAIVLTVPGSERSYDLTGLKPGTEYSVLIHGVKGGHLSDPLSAIFTT
B10 gave an HSA of 3500.

B11: SEQ ID NO 136 (designed binder)
chain: MLPAPKNLVVSRVTEDSARLSWTAPDAAFDSFFIYYIESYPAGEAIVLTVPGSERSYDLTGLKPGTEYWMGIDGVKGGRWSTPLSAIFTT
In turn, B11 came in with an HSA of 5700.

B12: SEQ ID NO 41 (designed binder)
chain: MLPAPKNLVISRVTEDSARLSWTAPDAAFDSFFIYYIESYPAGEAIVLTVPGSERSYDLTGLKPGTEYWVGIDGVKGGRWSTPLSAIFTT
Take B12: the HSA is 10100.

B13: SEQ ID NO 43 (designed binder)
chain: MLPAPKNLVVSRVTEDSARLSWTAPDAAFDSFYIEYYESYPGGEAIVLTVPGSERSYDLTGLKPGTEYDVYIYGVKGGYWSRPLSAIFTT
Turning to B13, the HSA was found to be 8160.

B14: SEQ ID NO 134 (designed binder)
chain: MLPAPKNLVVSRVTEDSARLSWTAPDAAFDSFWIDYYERKYVGEAIVLTVPGSERSYDLTGLKPGTEYEVTIYGVKGGWYSDPLSAIFTT
In the case of B14, the HSA came to 1950.

B15: SEQ ID NO 157 (designed binder)
chain: MLPAPKNLVVSRVTEDSARLSWTAPDAAFDSFAIEYYEYVGNGEAIVLTVPGSERSYDLTGLKPGTEYQVGIYGVKGGYYSRPLSAIFTT
The molecule B15 returned an HSA of 2450.

B16: SEQ ID NO 140 (designed binder)
chain: MLPAPKNLVVSRVTEDSARLSWTAPDAAFDSFWISYEESDTEGEAIYLRVPGSERSYDLTGLKPGTEYNVTIQGVKGGFPSMPLSAIFTT
B16 yielded an HSA of 1600.

B17: SEQ ID NO 152 (designed binder)
chain: MLPAPKNLVVSRVTEDSARLSWTAPDAAFDSFFIGYLEPQPPGEAIVLTVPGSERSYDLTGLKPGTEYNVTIQGVKGGFPSSPLSAIFTT
Regarding B17, the HSA worked out at 5300.

B18: SEQ ID NO 128 (designed binder)
chain: MLPAPKNLVVSRVTEDSARLSWTAPDAAFDSFIINYIEIVQYGEAIVLTVPGSERSYDLTGLKPGTEYPESIWGVKGGGASSPLSAIFTT
B18 had an HSA of 3250.

B19: SEQ ID NO 130 (designed binder)
chain: MLPAPKNLVVSRVTEDSARLSWTAPDAAFDSFHIPYVEAEVPGEAIQLHVPGSERSYDLTGLKPGTEYYVEIWGVKGGFYSPPLIAEFTT
The molecule B19 showed an HSA of 6050.

B20: SEQ ID NO 132 (designed binder)
chain: MLPAPKNLVVSRVTEDSARLSWTAPDAAFDSFTIVYAEVTYDGEAIVLTVPGSERSYDLTGLKPGTEYDVFIEGVKGGELSWPLSAIFTT
Turning to B20, the HSA worked out at 2350.

B21: SEQ ID NO 133 (designed binder)
chain: MLPAPKNLVVSRVTEDSARLSWTAPDAAFDSFPIVYGEAWVTGEAIVLTVPGSERSYDLTGLKPGTEYDVWIEGVKGGELSWPLSAIFTT
Turning to B21, the HSA is 5000.

B22: SEQ ID NO 149 (designed binder)
chain: MLPAPKNLVVSRVTEDSARLSWTAPDAAFDSFIIPYAEVRPDGEAIVLTVPGSERSYDLTGLKPGTEYSVLIHGVKGGKLSEPLSAIFTT
Take B22: the HSA is 3350.

B23: SEQ ID NO 146 (designed binder)
chain: MLPAPKNLVVSRVTEDSARLSWTAPDAAFDSFYIAYAEPRPDGEAIVLTVPGSERSYDLTGLKPGTEYSVLIHGVKGGLLSSPLSAIFTT
As for B23, the HSA was found to be 3800.

B24: SEQ ID NO 144 (designed binder)
chain: MLPAPKNLVVSRVTEDSARLSWTAPDAAFDSFIIPYAEVRPDGEAIVLTVPGSERSYDLTGLKPGTEYSVLIHGVKGGKLSLPLSAIFTT
The molecule B24 displayed an HSA of 2750.

B25: SEQ ID NO 154 (designed binder)
chain: MLPAPKNLVVSRVTEDSARLSWTAPDAAFDSFFIPYAEPRPDGEAIVLTVPGSERSYDLTGLKPGTEYSVLIHGVKGGLLSSPLSAIFTT
As for B25, the HSA stood at 4150.

B26: SEQ ID NO 42 (designed binder)
chain: MLPAPKNLVVSRVTEDSARLSWTAPDAAFDSFTIEYYESFYGGEAIVLTVPGSERSYDLTGLKPGTEYYVSIYGVKGGWLSRPLSAIFTT
Consider B26, for which the HSA amounted to 5920.

B27: SEQ ID NO 166 (designed binder)
chain: MLPAPKNLVVSRVTEDSARLSWTAPDAAFDSFTILYNEIQNVGEAIVLTVPGSERSYDLTGLKPGTEYDVWIEGVKGGELSWPLSAIFTT
Take B27: the HSA worked out at 5050.

B28: SEQ ID NO 160 (designed binder)
chain: MLPAPKNLVVSRVTEDSARLSWTAPDAAFDSFNIAYGEWRQHGEAIVLTVPGSERSYDLTGLKPGTEYDVFIDGVKGGNLSWPLSAIFTT
B28 came in with an HSA of 3300.

B29: SEQ ID NO 145 (designed binder)
chain: MLPAPKNLVVSRVTEDSARLSWTAPDAAFDSFFIPYAEPSPTGEAIVLTVPGSERSYDLTGLKPGTEYDVWIEGVKGGTLSWPLSAIFTT
In turn, B29 showed an HSA of 48400.

B30: SEQ ID NO 158 (designed binder)
chain: MLPAPKNLVVSRVTEDSARLSWTAPDAAFDSFIIDYLELDDYGEAIVLTVPGSERSYDLTGLKPGTEYPVYIYGVKGGLPSTPLSAIFTT
Consider B30, for which the HSA was 1350.

B31: SEQ ID NO 142 (designed binder)
chain: MLPAPKNLVVSRVTKDSARLSWTAPDAAFDSFHIAYEEATTYGEAIFLRVPGSERSYDLTGLKPGTEYEVKIHGVKGGADSKPLVAPFTT
B31: the HSA amounted to 3400.

B32: SEQ ID NO 162 (designed binder)
chain: MLPAPKNLVVSRVTEDSARLSWTAPDAAFDSFHIAYEEATTYGEAIFLRVPGSERSYDLTGLKPGTEYDVWIEGVKGGTISGPLSAIFTT
As to B32, the HSA was determined as 1850.

B33: SEQ ID NO 40 (designed binder)
chain: MLPAPKNLVVSRVTEDSARLSWTAPDAAFDSFVIEYWEYVGHGEAIVLTVPGSERSYDLTGLKPGTEYSVGIYGVKGGSLSRPLSAIFTT
As to B33, the HSA came to 2960.

B34: SEQ ID NO 141 (designed binder)
chain: MLPAPKNLVVSRVTEDSARLSWTAPDAAFDSFVIEYFEQFNLGEAIVLTVPGSERSYDLTGLKPGTEYLVGIYGVKGGWLSHPLSAIFTT
With B34, the HSA was 3150.

B35: SEQ ID NO 156 (designed binder)
chain: MLPAPKNLVVSRVTEDSARLSWTAPDAAFDSFAIEYFENLGIGEAIVLTVPGSERSYDLTGLKPGTEYVVNIYGVKGGWLSSPLSAIFTT
For the molecule B35, the HSA was 5000.

B36: SEQ ID NO 161 (designed binder)
chain: MLPAPKNLVVSRVTEDSARLSWTAPDAAFDSFTIRYWEELPTGEAIVLTVPGSERSYDLTGLKPGTEYTVEIFGVKGGYLSRPLSAISTT
For the molecule B36, the HSA is 5050.

B37: SEQ ID NO 143 (designed binder)
chain: MLPAPKNLVVSRVTEDSARLSWTAPDAAFDSFHIAYEEADSEGEAIYLRVPGSERSYDLTGLKPGTEYSVNIQGVKGGIVSFPLHAEFTT
On to B37, for which the HSA was 9250.

B38: SEQ ID NO 138 (designed binder)
chain: MLPAPKNLVVSRVTEDSARLSWTAPDAAFDSFFIKYIEWWADGEAIVLTVPGSERSYDLTGLKPGTEYLVEIYGVKGGRQSYPLSAIFTT
B38 showed an HSA of 3500.

B39: SEQ ID NO 127 (designed binder)
chain: MLPAPKNLVVSRVTEDSARLSWTAPDAAFDSFPIPYGESPPSGEAIVLTVPGSERSYDLTGLKPGTEYVVIIRGVKGGGRSGPLSAISTT
Molecule B39 had an HSA of 93300.
